Values of other authors in patent US20050019270A1, “Formulation of powder containing nanoparticles for aerosol delivery to the lungs” (priority 2003, published 2005).

Conditions: spray drying with polysorbate 20 added

In the case of “recombinant human growth hormone: Protein in a prior spray drying study with polysorbate 20”, the surface aggregation is given as < 2%.
